According to patent US9993536B2, “Peptides and combination of peptides and scaffolds for use in immunotherapy against renal cell carcinoma (RCC) and other cancers” (immatics biotechnologies GmbH, priority 2015, dated 2018):

How the values were obtained:
CD8+ T cells = assay: In vitro T-cell priming assay with aAPCs loaded with peptide/MHC complexes and anti-CD28 (immunogenicity, multimer staining); type: cell-based, human; details: for Wells positive [%]: in vitro immunogenicity, HLA class I peptides, percentage of positive wells; for in vitro immunogenicity: donors / in vitro immunogenicity: wells: healthy HLA-A*02+ donors; for in vitro immunogenicity: donors: share of positive donors; for in vitro immunogenicity: wells: share of positive wells
Description: In order to obtain information regarding the immunogenicity of the TUMAPs of the present invention, the inventors performed investigations using an in vitro T-cell priming assay based on repeated stimulations of CD8+ T cells with artificial antigen presenting cells (aAPCs) loaded with peptide/MHC complexes and anti-CD28 antibody.
In order to perform in vitro stimulations by artificial antigen presenting cells loaded with peptide-MHC complex (pMHC) and anti-CD28 antibody, the inventors first isolated CD8+ T cells from fresh HLA-A*02 leukapheresis products via positive selection using CD8 microbeads (Miltenyi Biotec, Bergisch-Gladbach, Germany) of healthy donors obtained from the University clinics Mannheim, Germany, after informed consent.
PBMCs and isolated CD8+ lymphocytes were incubated in T-cell medium (TCM) until use consisting of RPMI-Glutamax (Invitrogen, Karlsruhe, Germany) supplemented with 10% heat inactivated human AB serum (PAN-Biotech, Aidenbach, Germany), 100 U/ml Penicillin/100 μg/ml Streptomycin (Cambrex, Cologne, Germany), 1 mM sodium pyruvate (CC Pro, Oberdorla, Germany), 20 μg/ml Gentamycin (Cambrex). 2.5 ng/ml IL-7 (PromoCell, Heidelberg, Germany) and 10 U/ml IL-2 (Novartis Pharma, Nürnberg, Germany) were also added to the TCM at this step.
Generation of pMHC/anti-CD28 coated beads, T-cell stimulations and readout was performed in a highly defined in vitro system using four different pMHC molecules per stimulation condition and 8 different pMHC molecules per readout condition.
The purified co-stimulatory mouse IgG2a anti human CD28 Ab 9.3 (Jung et al., 1987) was chemically biotinylated using Sulfo-N-hydroxysuccinimidobiotin as recommended by the manufacturer (Perbio, Bonn, Germany). Beads used were 5.6 μm diameter streptavidin coated polystyrene particles (Bangs Laboratories, Illinois, USA).
pMHC used for positive and negative control stimulations were A*0201/MLA-001 (peptide […] (SEQ ID NO. 152) from modified Melan-A/MART-1) and A*0201/DDX5-001 ([…] from DDX5 (SEQ ID NO. 153)), respectively.
800.000 beads/200 μl were coated in 96-well plates in the presence of 4×12.5 ng different biotin-pMHC, washed and 600 ng biotin anti-CD28 were added subsequently in a volume of 200 μl. Stimulations were initiated in 96-well plates by co-incubating […] CD8+ T cells with 2×10^5 washed coated beads in 200 μl TCM supplemented with 5 ng/ml IL-12 (PromoCell) for 3 days at 37° C. Half of the medium was then exchanged by fresh TCM supplemented with 80 U/ml IL-2 and incubating was continued for 4 days at 37° C. This stimulation cycle was performed for a total of three times. For the pMHC multimer readout using 8 different pMHC molecules per condition, a two-dimensional combinatorial coding approach was used as previously described (Andersen et al., 2012) with minor modifications encompassing coupling to 5 different fluorochromes. Finally, multimeric analyses were performed by staining the cells with Live/dead near IR dye (Invitrogen, Karlsruhe, Germany), CD8-FITC antibody clone SK1 (BD, Heidelberg, Germany) and fluorescent pMHC multimers. For analysis, a BD LSRII SORP cytometer equipped with appropriate lasers and filters was used. Peptide specific cells were calculated as percentage of total CD8+ cells. Evaluation of multimeric analysis was done using the FlowJo software (Tree Star, Oregon, USA). In vitro priming of specific multimer+ CD8+ lymphocytes was detected by comparing to negative control stimulations.

HLA-A*02:01 = HLA-A*02:01 (Homo sapiens, UniProt P04439, D140Y/D185E/D98H/E176V/E277Q/G131W/G231S/I119V/I121R/I166T/I218V/L300P/L318F/N151K/N90K/P208A/P217A/Q86G/Q94H/R138H/R169H/T345S); assay: MHC binding assay (UV-ligand exchange, beta2m ELISA); details: peptide exchange yield, HLA-A*02:01, UV-ligand exchange
Description: Candidate peptides for T cell based therapies according to the present invention were further tested for their MHC binding capacity (affinity). The individual peptide-MHC complexes were produced by UV-ligand exchange, where a UV-sensitive peptide is cleaved upon UV-irradiation, and exchanged with the peptide of interest as analyzed. Only peptide candidates that can effectively bind and stabilize the peptide-receptive MHC molecules prevent dissociation of the MHC complexes. To determine the yield of the exchange reaction, an ELISA was performed based on the detection of the light chain (β2m) of stabilized MHC complexes. The assay was performed as generally described in Rodenko et al. (Rodenko et al., 2006).
96 well MAXISorp plates (NUNC) were coated over night with 2 ug/ml streptavidin in PBS at room temperature, washed 4× and blocked for 1 h at 37° C. in 2% BSA containing blocking buffer. Refolded HLA-A*02:01/MLA-001 monomers served as standards, covering the range of 15-500 ng/ml. Peptide-MHC monomers of the UV-exchange reaction were diluted 100 fold in blocking buffer. Samples were incubated for 1 h at 37° C., washed four times, incubated with 2 ug/ml HRP conjugated anti-β2m for 1 h at 37° C., washed again and detected with TMB solution that is stopped with […]. Absorption was measured at 450 nm. Candidate peptides that show a high exchange yield (preferably higher than 50%, most preferred higher than 75%) are generally preferred for a generation and production of antibodies or fragments thereof, and/or T cell receptors or fragments thereof, as they show sufficient avidity to the MHC molecules and prevent dissociation of the MHC complexes.

Substance	Peptide exchange (MHC class I binding score) (HLA-A*02:01)	also measured
6 (VLFELSKTV; listed as Homo sapiens) [compound 6]	+++ (≥50 = +++)	Wells positive [%] (CD8+ T cells): + (<20% = +)
15 (ILIKHLVKV; listed as Homo sapiens) [compound 15]	++ (≥20% = ++)	Wells positive [%] (CD8+ T cells): + (<20% = +)
7 (FLLSLIDRL; listed as Homo sapiens) [compound 7]	+++ (≥50 = +++)	Wells positive [%] (CD8+ T cells): + (<20% = +)
20 (AVANTTFTV; listed as Homo sapiens) [compound 20]	++ (≥20% = ++)	Wells positive [%] (CD8+ T cells): + (<20% = +)
9 (ILLQKPDSV; listed as Homo sapiens) [compound 9]	++ (≥20% = ++)	Wells positive [%] (CD8+ T cells): + (<20% = +)
16 (FMPEELPQL; listed as Homo sapiens) [compound 16]	++ (≥20% = ++)	Wells positive [%] (CD8+ T cells): + (<20% = +)
1 (ALIVSLPYL; listed as Homo sapiens) [compound 1]	+++ (≥50 = +++)	Wells positive [%] (CD8+ T cells): + (<20% = +)
2 (ILWREVVTL; listed as Homo sapiens) [compound 2]	+++ (≥50 = +++)	Wells positive [%] (CD8+ T cells): + (<20% = +)
127 (VLAPLFVYL; listed as Homo sapiens) [compound 127]	–	in vitro immunogenicity: donors (CD8+ T cells): ++++ (>=70% = ++++); in vitro immunogenicity: wells (CD8+ T cells): ++ (20%-49% = ++)
143 (ALFVRLLALA; listed as Homo sapiens) [compound 143]	–	in vitro immunogenicity: donors (CD8+ T cells): +++ (50%-69% = +++); in vitro immunogenicity: wells (CD8+ T cells): + (<20% = +)
3 (RLLGEVQAL; listed as Homo sapiens) [compound 3]	++ (≥20% = ++)	Wells positive [%] (CD8+ T cells): + (<20% = +)
38 (VLLDTILQL; listed as Homo sapiens) [compound 38]	+++ (≥50 = +++)	–
13 (KIMAQILTV; listed as Homo sapiens) [compound 13]	+++ (≥50 = +++)	–
8 (GLASFKSFL; listed as Homo sapiens) [compound 8]	++ (≥20% = ++)	–
29 (ILLDLEQAL; listed as Homo sapiens) [compound 29]	+++ (≥50 = +++)	Wells positive [%] (CD8+ T cells): + (<20% = +)
35 (VLHSLQTQL; listed as Homo sapiens) [compound 35]	++ (≥20% = ++)	–
17 (ILAQQVHAL; listed as Homo sapiens) [compound 17]	+++ (≥50 = +++)	–
123 (YVDPVITSI; listed as Homo sapiens) [compound 123]	–	in vitro immunogenicity: donors (CD8+ T cells): ++++ (>=70% = ++++); in vitro immunogenicity: wells (CD8+ T cells): + (<20% = +)
30 (QLFYTKIFL; listed as Homo sapiens) [compound 30]	++ (≥20% = ++)	–

Further lines, with some results ahead:

Peptide exchange (MHC class I binding score) (HLA-A*02:01)	Substance	also measured
++ (≥20% = ++)	95 (KLTDVGIATL; listed as Homo sapiens) [compound 95]	Wells positive [%] (CD8+ T cells): ++++ (>=70% = ++++)
++ (≥20% = ++)	90 (FTLEKNFVI; listed as Homo sapiens) [compound 90]	–
+++ (≥50 = +++)	43 (YLKDELDEL; listed as Homo sapiens) [compound 43]	–
+++ (≥50 = +++)	79 (ALADIVWRA; listed as Homo sapiens) [compound 79]	–
++ (≥20% = ++)	42 (VILDTGTIQL; listed as Homo sapiens) [compound 42]	–
+++ (≥50 = +++)	47 (TLAEVRAVQEI; listed as Homo sapiens) [compound 47]	–
++ (≥20% = ++)	64 (LLAASVALA; listed as Homo sapiens) [compound 64]	–
+++ (≥50 = +++)	83 (IQWSIVPEV; listed as Homo sapiens) [compound 83]	–
+++ (≥50 = +++)	74 (GLFHKQVTV; listed as Homo sapiens) [compound 74]	–
++ (≥20% = ++)	54 (ALVAKGLVQA; listed as Homo sapiens) [compound 54]	–
+++ (≥50 = +++)	60 (ILWKDIEYV; listed as Homo sapiens) [compound 60]	–
++ (≥20% = ++)	100 (KLNVAPLAV; listed as Homo sapiens) [compound 100]	–
++++ (≥75% = ++++)	109 (YLWSRVEKL; listed as Homo sapiens) [compound 109]	–
++ (≥20% = ++)	103 (KLQDGLLHI; listed as Homo sapiens) [compound 103]	–
++++ (≥75% = ++++)	58 (FLVDFEQSHL; listed as Homo sapiens) [compound 58]	–
+++ (≥50 = +++)	39 (YLLNLNHLGL; listed as Homo sapiens) [compound 39]	–
+++ (≥50 = +++)	102 (LLFDVHTTL; listed as Homo sapiens) [compound 102]	–
+++ (≥50 = +++)	104 (ALFEGVVRQI; listed as Homo sapiens) [compound 104]	–
++ (≥20% = ++)	108 (VLISVLQAI; listed as Homo sapiens) [compound 108]	–
++ (≥20% = ++)	99 (GLAPHLEQI; listed as Homo sapiens) [compound 99]	–
++ (≥20% = ++)	66 (TLLKTIIKV; listed as Homo sapiens) [compound 66]	–
++ (≥20% = ++)	78 (ALLDTVVQA; listed as Homo sapiens) [compound 78]	–
++ (≥20% = ++)	101 (HIYDKAFITV; listed as Homo sapiens) [compound 101]	–
+++ (≥50 = +++)	73 (GLDGIPFTV; listed as Homo sapiens) [compound 73]	–
+++ (≥50 = +++)	45 (ALLGIPLTL; listed as Homo sapiens) [compound 45]	–
+++ (≥50 = +++)	51 (NLWPMILTL; listed as Homo sapiens) [compound 51]	–
